What all share (conditions): both partners purified
Experiment [1] addresses T1, recombinant human MT1-MMP catalytic domain (human, UniProt P50281 114-287).
T1 construct: MT1-MMP (MMP14), human, catalytic domain (20 kDa); PDB 1BQQ chain M is the catalytic domain structure used for the docking, not necessarily the same limits; also called Membrane type 1 metalloproteinase; MMP14
As to the kind of experiment: ITC; MicroCal ITC-200, 25 °C, 10 mM HEPES, 150 mM NaCl, pH 7.4; results and legend: peptides injected into MT1-MMP; methods: MT1-160p (1 mM) in the syringe into binding peptides (0.1 mM) in the cell; one-site binding model.

The target in experiment [2] is T1, recombinant human MT1-MMP catalytic …. As to the kind of experiment: atomic force microscopy (single-molecule recognition force spectroscopy); peptide covalently on the AFM tip through NHS-PEG18-aldehyde; MT1-MMP immobilised on APTES-treated mica; PBS; 25 °C; control with free excess peptide (1 mmol/L).
In the next experiment the target is T2, MT1-160p (human).
T2 construct: peptide of MT1-MMP (MMP14) that holds the MT-Loop (Tyr164-Gln174); source: synthetic peptide, bought: GL Biochem Ltd. (Shanghai)
T2 peptide: REVPYAYIREGHEKQ
As to the kind of experiment: atomic force microscopy (single-molecule recognition force spectroscopy); peptide covalently on the AFM tip through NHS-PEG18-aldehyde; MT1-160p immobilised on APTES-treated mica; PBS.

B1: MT1-AF7p (peptide)
peptide: HWKHLHNTKTFL
notes: In the AFM experiments coupled covalently to the tip through an NHS-PEG18-aldehyde linker; In the in vivo imaging Cy5.5 was conjugated to the N-terminus; also called original peptide; original ligand; source: synthetic peptide (solid-phase, Fmoc chemistry, HPLC purified)
On to B1, for which, in experiment [1], the Ka amounted to 107000 M⁻¹. In experiment [2], the “retraction force (peak position of the histogram)” value (“retraction force” below) turned out to be 150 pN. Besides, the binding result with MT1-160p was “binds”.

B2: MT1-AF7p-H4K (peptide)
peptide: HWKKLHNTKTFL
notes: MT1-AF7p with histidine 4 changed to lysine (rational design by docking); In the AFM experiments coupled covalently to the tip through an NHS-PEG18-aldehyde linker; also called optimized peptide; peptidomimetic; source: synthetic peptide, bought: GL Biochem Ltd. (Shanghai)
With B2, in experiment [2], the “retraction force” value stood at 166 pN. For the same molecule, the binding result with MT1-160p is “binds”.

B3: MT1-AF7p-H4R (peptide)
peptide: HWKRLHNTKTFL
notes: MT1-AF7p with histidine 4 changed to arginine (rational design by docking); In the AFM experiments coupled covalently to the tip through an NHS-PEG18-aldehyde linker; also called optimized peptide; peptidomimetic; source: synthetic peptide, bought: GL Biochem Ltd. (Shanghai)
For B3, in experiment [1], the Ka came to 175000 M⁻¹; the dH was -0.29 kcal/mol; the stoichiometry N (usually the number of molecules, sites or subunits per partner or assembly) turned out to be 1.14. Also, the “retraction force” value in experiment [2] is 260 pN. In the experiment with MT1-160p, the binding result was “binds”.
